Test results as given in article PMC6487837.

Assay: confocal microscopy, plasma membrane localisation, HT1080 and HL-1 cells
Conditions: glycan lost; control: wild-type DSC2-eYFP
With Desmocollin-2 (DSC2): p.N166Q the localisation_or_trafficking was “no change”.
In the case of Desmocollin-2 (DSC2): p.N629Q, the localisation_or_trafficking is reported as “no change”.
In the case of Desmocollin-2 (DSC2): p.N392Q, the localisation_or_trafficking is reported as “no change”.
For Desmocollin-2 (DSC2): p.N546Q, the localisation_or_trafficking was “no change”.
